± gives the standard deviation.
Assay: protein stability index of a GFP-peptide fusion (GPS, HEK-293T) (PSI 1-6); higher = more stable
[1] = treatment: DMSO, c terminus: a fixed tail appended
[2] = treatment: MLN4924 1 uM, 8 h, c terminus: a fixed tail appended
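Note: 24-mer peptide tiles fused after GFP, lentivirally expressed, FACS-sorted into six equal bins by GFP/DsRed ratio, decoded by Illumina sequencing, PSI is the read-weighted mean bin number.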

Row | Sequence | protein stability index [1] | protein stability index [2] | protein stability index (treatment: DMSO, c terminus: native) | protein stability index (treatment: MLN4924 1 uM, 8 h, c terminus: native)
1 | PAEESKPAPSPHEEPCSPGLLQDQ [CBY2] | 5.33 ± 0.27 | 5.14 ± 0.31 | – | –
2 | SFLRDHSYATEADIISTVEFNHTG [PPP2R2B] | 3.65 ± 0.15 | 3.58 ± 0.19 | – | –
3 | RCGVPDVAQFVLTEGNPRWEQTHL [MMP1] | 2.42 ± 0.4 | 2.3 ± 0.24 | – | –
4 | SNCCFTFSGHFLCTSSWDKNLKIW [WDR88] | 2.22 ± 0.97 | 2.3 ± 0.4 | – | –
5 | FLLSQQTDLPECEQSSARQKASLL [TCF25] | 3.78 ± 0.52 | 3.83 ± 0.12 | – | –
6 | EPSNKTIHAELSKLVKKHAAQRST [FKBP8] | 4.49 ± 0.21 | 4.47 ± 0.3 | – | –
7 | PCKTRDDEPVCGRPLGIRAGPNGT [APMAP] | 3.9 ± 0.36 | 4.14 ± 0.093 | – | –
8 | SQKVLGLNEDPLKWWSDRLALFPL [ZBED1] | – | 2.14 ± 0.63 | – | –
9 | CRLINEDVNEQVMQVLGPEDLQSI [CEP70] | 3.65 ± 0.32 | 3.54 ± 0.28 | – | –
10 | LPAAEFHGLWDSLVYDVEVKSHLL [TRIP13] | 2.43 ± 0.22 | 2.42 ± 0.2 | – | –
11 | YKGELFDKTPVLLTDYPVDLDEIA [MYORG] | 3.73 ± 0.28 | 3.75 ± 0.16 | – | –
12 | QLCGKTFLTLEKFTIHNYSHSRER [PLAGL1] | 2.15 ± 0.57 | 2.27 ± 0.27 | – | –
13 | VCNKKFKMKHHLTEHMKTHTGLKP [ZBTB22] | 3.18 ± 0.14 | 3.21 ± 0.23 | – | –
14 | PTVIRNVGLGTCSMFSRVGGIIAP [SLC22A15] | 2.34 ± 0.3 | 2.23 ± 0.47 | – | –
15 | PEEPLNGESYESCCPTSREAAVEA [FEM1A] | 5.37 ± 0.18 | 5.28 ± 0.31 | – | –
16 | MIQTSKTEITELRRTLQGLEIELQ [KRT13] | 3.02 ± 0.28 | 3.07 ± 0.24 | – | –
17 | KSGAIMSALSDTEIQREIGISNAL [PPFIA4] | 4.02 ± 0.36 | 4.13 ± 0.18 | – | –
18 | EEEEEEEEEEDDLSELPPLEDMGQ [FKBP8] | 5.37 ± 0.3 | 5.63 ± 0.12 | – | –
19 | NKTDVVLILELVSGGELFDFLAEK [DAPK3] | 2.55 ± 0.58 | 2.68 ± 0.96 | – | –
20 | RGAPAVQQNIPSTLLQDHENQRLF [WAS] | 4.25 ± 0.2 | 4.29 ± 0.15 | – | –
21 | RSTCVYVCALSALPAGPLPAPLLV [PLEKHN1] | 3.18 ± 1.1 | 2.88 ± 0.71 | – | –
22 | LDSSHSPSSLSSSEGSSSSSSSSS [NFE2L1] | 5.51 ± 0.17 | 5.46 ± 0.15 | – | –
23 | LPVPPTPGLLSLATTSASDSLKPE [TFE3] | 4.87 ± 0.26 | 5.04 ± 0.29 | – | –

Row | Sequence | protein stability index [1] | protein stability index [2] | protein stability index (treatment: DMSO, c terminus: native) | protein stability index (treatment: MLN4924 1 uM, 8 h, c terminus: native)
24 | SQPAVELVSGSQSALGPPPAASNS [CLINT1] | 5.04 ± 0.31 | 5.21 ± 0.33 | – | –
25 | MGPKTLPQLAGKWQVLCMLSLCCW [PCDHGC5] | 3.21 ± 0.49 | 3.17 ± 0.76 | – | –
26 | VRHLEEENRGIVVLGINRAYGKNS [AUH] | 3.15 ± 0.36 | 3.31 ± 0.22 | – | –
27 | NFCKHNGSKNVFSTFRTPAVLFTG [ATL3] | 2.21 ± 0.32 | 2.33 ± 0.13 | – | –
28 | DGLDLDWEYPGSQGSPAVDKERFT [CHIT1] | 4.94 ± 0.21 | 5.04 ± 0.19 | – | –
29 | PAQVPREVLKVQTHLENPTRYHLQ [TFE3] | 3.75 ± 0.43 | 3.82 ± 0.093 | – | –
30 | VSDITDLELLDKIERSKIVSTMRC [PPEF2] | 3.69 ± 0.27 | 3.52 ± 0.23 | – | –
31 | VETSAKNAININELFIEISRRIPS [RAB22A] | 2.34 ± 0.21 | 2.29 ± 0.52 | – | –
32 | EDHFPLLFSEASECMLLVFGIDVK [MAGEA10] | 2.73 ± 0.84 | 2.7 ± 0.77 | – | –
33 | SALQSLLQHLIGLSNLTHVLYPVP [PRAME] | 3.36 ± 0.28 | 3.2 ± 0.16 | – | –
34 | TIGNLVPQKTYSVKVLAFTSIGDG [PTPRD] | 2.39 ± 0.16 | 2 ± 0.33 | – | –
35 | TPTLKVFMHENLYFTNRKVNSVCW [DCAF4] | 2.26 ± 0.4 | 1.95 ± 0.22 | – | –
36 | GLGELGAALLQLVRRLQALRLERE [ESRRA] | 2.66 ± 0.21 | 2.54 ± 0.14 | – | –
37 | TATFAVHFMVLSKSGPGDGFFSSA [POMT2] | 2.84 ± 0.36 | 2.93 ± 0.51 | – | –
38 | GNTVPAVEPGTPPLDILAQPLEAS [DNAAF3] | 5.19 ± 0.18 | 5.03 ± 0.29 | – | –
39 | PKLFCPKNRSFDIDAIYSVIDDAK [PLD5] | 3 ± 0.62 | 2.89 ± 0.27 | – | –
40 | SSEVDELIHKADEVTLSEAGSTAG [PALM] | 5.65 ± 0.15 | 5.58 ± 0.16 | – | –
41 | CLVFELLSYNLYDLLRNTHFRGVS [DYRK1B] | 2.95 ± 0.3 | 3.3 ± 0.16 | – | –
42 | KEQNNLKQLEFGLKEAPVQDQGYK [ZNF8] | 5.08 ± 0.2 | 5.25 ± 0.17 | – | –
43 | LKPESSQQPGQDALAVKAGHGYDS [ZBED1] | 5.12 ± 0.33 | 5.22 ± 0.32 | – | –
44 | CAIASGSELSESAFGYFITACAVI [SLC29A1] | 3.37 ± 0.67 | 3.12 ± 0.34 | – | –
45 | CHECGKKFSQNSHLIKHRRTHTGE [ZNF75A] | 5.19 ± 0.29 | 4.72 ± 0.25 | – | –
46 | ILTATVDNANILLQIDNARLAADD [KRT17] | 3.29 ± 0.075 | 3.26 ± 0.19 | – | –

Row | Sequence | protein stability index [1] | protein stability index [2] | protein stability index (treatment: DMSO, c terminus: native) | protein stability index (treatment: MLN4924 1 uM, 8 h, c terminus: native)
47 | LPRSEDDDCDDDDDDAQILPSPVQ [DRICH1] | 5.5 ± 0.11 | 5.53 ± 0.27 | – | –
48 | ELDNPMQQKWTKPARAGSEVEWTE [C2CD2L] | 4.1 ± 0.36 | 4.25 ± 0.21 | – | –
49 | PKKDLEDGEVPQHAGKKGKLSEHL [BRD3] | 5.18 ± 0.26 | 5.3 ± 0.26 | – | –
50 | SSCYPLIPSTPEEVSADDETPNPP [MAGEA10] | 5.46 ± 0.31 | 5.44 ± 0.27 | – | –
51 | GRSGPGCAVLDDSIYLVGGYSWSM [KLHL14] | 2.7 ± 0.39 | 2.38 ± 0.63 | – | –
52 | WKEGRPRVEESGSKKEGKRQGPKE [PBXIP1] | 5.28 ± 0.46 | 5.24 ± 0.12 | – | –
53 | PSVRKKAGSFSRRLIKRFSFKSKP [C2CD2L] | 3.34 ± 0.56 | 3.35 ± 0.31 | – | –
54 | EEEDEILPRKDYESLDYDRCINDP [CLCN6] | 5.52 ± 0.17 | 5.48 ± 0.29 | – | –
55 | LPQVAEEISGPLTSANKITLVSSG [FLOT1] | 3.78 ± 0.23 | 4.23 ± 0.21 | – | –
56 | TEQFTAMRDLYMKNGQGFALVYSI [RAP1B] | 3.25 ± 1 | 2.96 ± 0.5 | – | –
57 | NKCSVYPLTFDKNENMAAKKKSVA [GNB5] | 4.09 ± 0.16 | 4.39 ± 0.48 | – | –
58 | RQRLLADLLHNVSQNIAAETRAED [DFFB] | 4.1 ± 0.36 | 4.09 ± 0.44 | – | –
59 | CTQLGSLSALKHAVLGLYLLVFLI [SCARA5] | 2.16 ± 0.24 | 2.05 ± 0.23 | – | –
60 | MGETKIIYHLDGQETPYLVKLPLP [DVL3] | 2.2 ± 0.3 | 2.3 ± 0.23 | – | –
61 | FATFCGGLAANGALQRLDLRNNQI [LRRC45] | 2.36 ± 0.19 | 2.37 ± 0.23 | – | –
62 | VHKTKEQFGQDGPISVHCSAGVGR [PTPRD] | 4.02 ± 0.23 | 4.15 ± 0.25 | – | –
63 | HAVVGVATALAPLQTDHYAALLGS [SPSB2] | 2.37 ± 0.18 | 2.29 ± 0.39 | – | –
64 | TSPALLQGTAEEDHVDLSLSCTLV [CDKN1A] | 3.85 ± 0.13 | 3.85 ± 0.18 | – | –
65 | TSHRRVTDVRGLEEFLSAMQSARG [PLEKHN1] | 3.33 ± 0.31 | 3.42 ± 0.26 | – | –
66 | TGACGEAMAAAEGSSGPAGLTLGR [SEPHS2] | 3.78 ± 0.082 | 3.87 ± 0.055 | – | –
67 | SSSSLGNKLQTLSPSHKGIAAPHA [ZC2HC1A] | 3.81 ± 0.22 | 3.97 ± 0.26 | – | –
68 | TLSRPPPAQVPREVLKVQTHLENP [TFE3] | 4.3 ± 0.11 | 4.41 ± 0.19 | – | –
69 | DSEQNGQVTCSILAYLPFKLEKSI [PCDHGA10] | 2.16 ± 0.24 | 2.27 ± 0.41 | – | –

Row | Sequence | protein stability index [1] | protein stability index [2] | protein stability index (treatment: DMSO, c terminus: native) | protein stability index (treatment: MLN4924 1 uM, 8 h, c terminus: native)
70 | AAFEEFDTDRDGYISHRELGDCMR [CABP4] | 4.25 ± 0.17 | 4.3 ± 0.36 | – | –
71 | RPQPRGLLGWGYYLIMLPFRFTYY [FAF2] | 3.86 ± 0.18 | 3.48 ± 0.077 | – | –
72 | YPVTIGGKIVGSLCAIAGVLTIAL [KCNA1] | 2.35 ± 0.21 | 2.23 ± 0.16 | – | –
73 | NPALQLILTRTDKTLNKKLGQNK [TOR1AIP2] | – | – | 3.87 ± 0.16 | 3.89 ± 0.12
74 | GRGLLRWDSFSAWLHCVCVVGFDL [DENND6A] | 2.77 ± 0.58 | 2.83 ± 0.69 | – | –
75 | DILEEEKIYAYPSNITSETGFRTI [TMEM192] | 3.04 ± 0.33 | 3.4 ± 0.25 | – | –
76 | SFQGCMAQLFMDHLFAGAEVILLV [OR4A15] | 3.28 ± 1.2 | 3.18 ± 0.91 | – | –
77 | LAHMIAECKKLFQVPEEMSRCRNS [DLC1] | 2.67 ± 0.34 | 2.68 ± 0.34 | – | –
78 | KAAGSVSKSTQFEYAWCLVRSKYN [FIS1] | 2.24 ± 0.57 | 2.17 ± 0.37 | – | –
79 | KEDALLYQSKGYNDDYYEESYFTT [EMD] | 4.2 ± 0.2 | 4.21 ± 0.18 | – | –
80 | PKKSAPSAVARSNSWMGSQGPMSQ [RBMY1A1] | 4.08 ± 0.13 | 4.28 ± 0.2 | – | –
81 | TNPDLIIVCAQSSQSLWNRLSVLL [SMG5] | 2.59 ± 0.54 | 2.49 ± 0.64 | – | –
82 | REIARYLLEQGAQVNRRSAKGNTA [FEM1A] | 3.29 ± 0.12 | 3.54 ± 0.31 | – | –
83 | PARDYSQYYRTIEELQNKILTATV [KRT17] | 2.28 ± 0.2 | 2.34 ± 0.21 | – | –
84 | LNPGFQDATLSLKQTILDKEEKQR [TTC32] | 4.94 ± 0.15 | 4.98 ± 0.17 | – | –
85 | LTADTKEVTASQEARGLRLSDLED [IRX6] | 5.37 ± 0.32 | 5.35 ± 0.12 | – | –
86 | LESRFQSKSGYLRYSCESRIRSYL [DFFB] | 2.46 ± 0.12 | 2.39 ± 0.24 | – | –
87 | PKRRWLFWNSPSSPSSSAASSSSP [RHOBTB2] | 3.57 ± 0.2 | 3.75 ± 0.18 | – | –
88 | LSVCPLEGSREHAFQITGVWDASR [PLEKHN1] | 2.88 ± 0.24 | 3.38 ± 0.37 | – | –
89 | TPVPTITANVTSVPVPPAAAPPPP [BRD3] | 4.92 ± 0.17 | 5.04 ± 0.17 | – | –

Reference: the supplement of paper PMC10567573
